Reference: doi:10.1101/2024.07.16.603716

Target: VisA (SGO_2004) region containing its 7 G5 domains, residues 138-698, with a C-terminal His-tag (Streptococcus gordonii DL1)
Experiment: denaturing western blot

For “VisA (SGO_2004) region containing its 7 G5 domains, residues 138-698, with a C-terminal His-tag (domain or fragment)”, the stoichiometry N was 2.
